Results published in paper PMC5827684.

Columns and labels:
[1] = tested on: IscR-C92A (apo-locked) (Escherichia coli); experiment: EMSA
[2] = tested on: Fur (Mn2+-Fur) (Escherichia coli); experiment: EMSA

| Substance | binding [1] [nM] | binding [2] [nM] |
| --- | --- | --- |
| control DNA in 3' end of hmuR coding region | 250 | – |
| hmuR promoter (p1) | – | 31.2 |
| hmuR-hmuS intergenic, larger fragment | 62.5 | – |
